Laboratory results from patent publication US7067117 (CAMBRIDGE UNIVERSITY TECHNICAL SERVICES, dated 2006).
Like-named read-outs stand apart in the source and are kept apart here. Bridge positions count the residues as written; N and C are the ends. Square brackets hold non-standard residues; d marks the D form. Ends that are not written are not given here. * marks the point of attachment. Biotin = O=C1N[C@H]2[C@H](CS[C@H]2CCCCC(=O)*)N1

T1: Duffy Antigen Receptor for Chemokines (DARC) (human, UniProt Q16570 1-336)
T1 chain: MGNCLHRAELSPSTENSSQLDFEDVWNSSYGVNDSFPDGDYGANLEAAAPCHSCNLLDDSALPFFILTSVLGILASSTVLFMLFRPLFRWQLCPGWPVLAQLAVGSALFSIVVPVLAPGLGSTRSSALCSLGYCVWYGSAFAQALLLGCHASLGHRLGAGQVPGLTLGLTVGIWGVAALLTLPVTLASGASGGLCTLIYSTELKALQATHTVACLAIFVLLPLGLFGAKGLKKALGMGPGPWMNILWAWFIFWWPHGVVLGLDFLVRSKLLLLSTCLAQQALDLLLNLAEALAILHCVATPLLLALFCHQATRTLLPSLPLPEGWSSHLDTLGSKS

T2: Duffy Antigen Receptor for Chemokines (DARC) (human, UniProt Q16570 1-336)
T2 construct: whole, on cells
T2 sequence (looked up): T1 chain

T3: Duffy Antigen Receptor for Chemokines (DARC) (human) (UniProt Q16570)
T3 sequence (looked up): T1 chain

B1: peptide 3(3-12)[MCP-1] (peptide)
peptide: CADPKQKWVQ
notes: also called Pep3[3-12]; Pep3(3-12)[MCP-1]
B2: peptide 2(1-14)[MIP1α] (peptide)
peptide: DYFETSSQCSKPGV
notes: also called Pep2[MIP1α]; Pep2(1-14)[MIP1α]
B3: Ser7peptide 3(1-12)[MCP-1] (peptide)
peptide: EICADPSQKWVQ
notes: Mutant of peptide 3; also called Ser7pep3
B4: peptide 2(1-15)[SDF1] (peptide)
peptide: HLKILNTPNCALQIV
notes: also called Pep2[SDF1]; Pep2(1-15)[SDF1]
B5: Leu4Ile11peptide 3(1-12)[MCP-1] (peptide)
peptide: EICLDPKQKWIQ
notes: also called Leu4Ile11pep3; Leu4Ile11peptide 3[MCP-1]

Assays:
[1] = biological target: T1, Duffy Antigen Receptor for Chemokines …; assay: DARC binding
[2] = biological target: chemokine receptors on THP-1 cells; assay: cell-based or functional assay
[3] = biological target: T2, Duffy Antigen Receptor for Chemokines …; assay: estimated ka for binding to red blood cells divided by average inhibitory ED50 (THP-1 migration)
Experimental: Counts associated with the cells are then determined by gamma-counting scintigraphy. […] Furthermore, Scatchard analysis confirms the presence of a single high affinity binding site with 500–1000 copies per cell, consistent with the known properties of DARC.
The DARC specificity ratio is also determined. The DARC specificity ratio is defined as the estimated ka for association with DARC divided by the $ED50$ for biological activity. […] Thus, it may be difficult to achieve biologically active (as a chemokine inhibitor) concentrations of these peptides in vivo without further modifications of the peptide.
Footnotes [a]'CC-specificity' is the average inhibitory ED$50$ versus SDF1 and IL8 divided by average inhibitory ED$50$ versus MCP-1 and MIP1α. [b]'Duffy selectivity' is the estimated ka for binding to red blood cells divided by average inhibitory ED$50$ versus each of the chemokines (except for peptide 2; see footnote d below). [c]'Average ED$50$' is the average inhibitory ED$50$ for inhibition of THP-1 migration induced by each of the chemokines (except for peptide 2; see footnote e below). [d]For the peptide 2 family, the 'average ED$50$' is the estimated ka for binding to THP-1 cells. [e]For the peptide 2 family, the 'Duffy selectivity' is calculated as the ka for binding to red blood cells divided by the ka for binding THP1-1 cells. [f]For tripeptide derivatives so marked, the peptide is highly specific for one of the four exemplary chemokines.

[4] = biological target: T3, Duffy Antigen Receptor for Chemokines (DARC) (human); assay: as above
[5] = biological target: chemokine receptors on THP-1 cells; assay: binding to chemokine receptors on THP-1 cells; given as 'association constant'
[6] = biological target: T2, Duffy Antigen Receptor for Chemokines …; assay: ka for binding to red blood cells divided by ka for binding to THP-1 cells
[7] = biological target: chemokine receptors on THP-1 cells; assay: estimated ka for binding to THP-1 cells, printed under 'AVERAGE ED50 (µM)'
[8] = biological target: TGF-beta receptor of THP-1 cells; assay: biotinylated peptide binding to THP-1 cells
[9] = biological target: chemokine receptors on THP-1 cells; assay: biotinylated peptide binding to the surface of THP-1 cells; printed as 'ka' in µM
[10] = biological target: chemokine receptors on THP-1 cells; assay: cell-based or functional assay; remark: listed apart in the source
[11] = biological target: T3, Duffy Antigen Receptor for Chemokines (DARC) (human); assay: DARC binding on red blood cells; given as 'association constant'

Binder | Kd [1] | ED50 for inhibition of THP-1 migration versus IL8 [2] | ED50 for inhibition of THP-1 migration versus MCP1 [2] | ED50 for inhibition of THP-1 migration versus MIP1α [2] | ED50 for inhibition of THP-1 migration versus SDF1α [2] | average ED50 for inhibition of THP-1 migration induced by each of the chemokines [2] | further results
SYRRI | > 100 µM |  |  |  |  |  | 
B1 |  | 9 µM | 8 µM | 7 µM | 9 µM | 8 µM | Duffy selectivity [3]: 1.21 ratio
DYFETSSQC | > 100 µM |  |  |  |  |  | 
[dC][dQ][dV][dW][dK][dQ][dK][dP][dD][dA][dC] (disulfide 1-11 (inferred); not fully specified; printed as -CQVWKQKPDAC--) [CRD-Cys13pep3[3-12]] |  |  |  |  |  | 0.8 µM | Duffy selectivity [4]: 8.82
B2 | > 100 µM |  |  |  |  |  | Kd [5]: 100 to 900 nM; Duffy selectivity [6]: > 100 ratio; Kd [7]: 1 to 10 µM
B3 |  | 3 µM | 7 µM | 6 µM | 4 µM | 5 µM | Duffy selectivity [3]: 2 ratio
SEE |  |  |  | 6 µM |  |  | % inhibition of migration induced by MIP1α at 100 µM tripeptide [2]: 65%; ED50 for inhibition of THP-1 migration induced by the one chemokine it is specific for (MIP1α) [2]: 0.8 µM
EICADPKQKWIQ [Ile11peptide 3(1-12)[MCP-1]] |  | 2 µM | 6 µM | 4 µM | 7 µM | 5 µM | 
EICADPSEEWVQ (not fully specified, also called Ser7Glu8Glu9pep3) [Ser7Glu8Glu9peptide 3(1-12)[MCP-1]] |  | 9 µM | 7 µM | 2 µM | 5 µM | 6 µM | Duffy selectivity [3]: 0.59 ratio
EICLDPKQKWVQ [Leu4peptide 3(1-12)[MCP-1]] |  | 3 µM | 8 µM | 7 µM | 3 µM | 5 µM | 
VGPKSCQSSTEFYD | > 100 µM |  |  |  |  |  | 
HEPKGYHANFC (also: biotinylated (position not given here)) [Biotinylated T2] |  |  |  |  |  |  | EC50 [8]: 30 µM
KQKWVQ (also called Pep3[7-12]; KQKWVQ) [peptide 3(7-12)[MCP-1]] |  | 6 µM | 7 µM | 5 µM | 6 µM | 6 µM | Duffy selectivity [3]: 2.94 ratio
Biotin-EICADPKQKWVQ [N-terminally biotinylated derivative of peptide 3(1-12)[MCP-1]] |  |  |  |  |  |  | Kd [9]: 10 µM
B4 | 19 µM |  |  |  |  |  | Duffy selectivity [6]: < 1 ratio; Kd [7]: 1 to 10 µM
[dC][dQ][dI][dW][dK][dQ][dK][dP][dD][dL][dC] (disulfide 1-11) [CRD-Cys13Leu4Ile11peptide 3(3-12)[MCP-1]] |  |  |  |  |  |  | ED50 for inhibition of MCP-1 induced THP-1 migration [10]: 1 nM; average ED50 for inhibition of THP-1 migration induced by each of the chemokines [10]: 0.1 µM; Duffy selectivity [4]: > 100; Kd [11]: 90 µM; Kd [5]: 100 to 500 nM
SYRRITSK | 22 µM |  |  |  |  |  | 
CPKEAV | > 100 µM |  |  |  |  |  | 
KEN |  |  |  |  |  |  | % inhibition of migration induced by IL-8 at 100 µM tripeptide [2]: 70%; % inhibition of migration induced by MCP-1 at 100 µM tripeptide [2]: 21%
CSKPGV | > 100 µM |  |  |  |  |  | 
SES |  |  |  |  |  |  | % inhibition of migration induced by RANTES at 100 µM tripeptide [2]: 87%
TSSKC | > 100 µM |  |  |  |  |  | 
EICADP [peptide 3(1-6)[MCP-1]] |  | 17 µM | 33 µM | 25 µM | 19 µM | 24 µM | Duffy selectivity [4]: 5.32
WIQ |  |  |  |  |  | 2 µM | 
ELRVIESGPHCANTEI (also called Pep2[IL8]) [Pep2(1-16)[IL8]] |  |  |  |  |  |  | Duffy selectivity [6]: < 1 ratio; Kd [7]: 1 to 10 µM
B5 |  | 3 µM | 2 µM | 1 µM | 3 µM | 2 µM | inhibition of MCP-1 induced migration [2]: 1 µM; Duffy selectivity [3]: 37.8 ratio
